Data as given in patent US20260199429A1.

Experiments:
[1] = target: Sea Lamprey PYY(1-36) (sea lamprey)
[2] = target: Sturgeon PYY(1-36) (sturgeon)

With purified DPP-4 (enzyme) the DPP-4 half-life (Human PYY(1-36) (human)) was under 2 h, the DPP-4 half-life [1] was over 8 h and the DPP-4 half-life [2] was over 8 h. It also gave a DPP-4 half-life (Trout PYY (trout)) of over 8 h and a DPP-4 half-life (Bowfin PYY (bowfin)) of over 8 h.
